± gives the standard deviation of the averaged measurements.
B1: library; a variant is named by its letters at N, in order (parent)
chain: GAGACCGCAACTGAAAAGTTGTGGNNNNNATAGTGAGTCGCTGCCTGCAAAGACACAACT

Variants of: B1
Assay: ligation selection enrichment (abundance after / before one-round selection) (fold); higher = more template-directed ligation activity
Conditions: with T7Psub CACGGAUGCUAAUACGACUCACUAUA; MgCl2 25 mM; 42 °C; 4 h; pH 8.5
Method in brief: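 Two independent reactions combined a T7-transcribed RNA ligase library with five randomized core positions (0.75 μM) and RNA substrate (6 μM) in 50 mM EPPS pH 8.5, 25 mM MgCl2, run for 4 h at 42 °C. The ligated products were sequenced on a MiSeq, and only reads with quality ≥30 at all randomized positions were counted. Enrichment is the abundance after ligation divided by the abundance before ligation.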

Variant | ligation selection enrichment
GAGACCGCAACTGAAAAGTTGTGGTCGCCATAGTGAGTCGCTGCCTGCAAAGACACAACT [TCGCC] | 0.155 ± 0.028
GAGACCGCAACTGAAAAGTTGTGGTCGCGATAGTGAGTCGCTGCCTGCAAAGACACAACT [TCGCG] | 0.485 ± 0.036
GAGACCGCAACTGAAAAGTTGTGGTCGCTATAGTGAGTCGCTGCCTGCAAAGACACAACT [TCGCT] | 0.299 ± 0.075
GAGACCGCAACTGAAAAGTTGTGGTCGCAATAGTGAGTCGCTGCCTGCAAAGACACAACT [TCGCA] | 0.269 ± 0.054
GAGACCGCAACTGAAAAGTTGTGGACGGCATAGTGAGTCGCTGCCTGCAAAGACACAACT [ACGGC] | 0.122 ± 0.01
GAGACCGCAACTGAAAAGTTGTGGACGGGATAGTGAGTCGCTGCCTGCAAAGACACAACT [ACGGG] | 0.165 ± 0.012
GAGACCGCAACTGAAAAGTTGTGGACGGTATAGTGAGTCGCTGCCTGCAAAGACACAACT [ACGGT] | 0.169 ± 0.025
GAGACCGCAACTGAAAAGTTGTGGACGGAATAGTGAGTCGCTGCCTGCAAAGACACAACT [ACGGA] | 0.204 ± 0.033
GAGACCGCAACTGAAAAGTTGTGGGCGCTATAGTGAGTCGCTGCCTGCAAAGACACAACT [GCGCT] | 0.519 ± 0.19
GAGACCGCAACTGAAAAGTTGTGGGCGCGATAGTGAGTCGCTGCCTGCAAAGACACAACT [GCGCG] | 0.558 ± 0.0074
GAGACCGCAACTGAAAAGTTGTGGGCGCCATAGTGAGTCGCTGCCTGCAAAGACACAACT [GCGCC] | 0.191 ± 0.017
GAGACCGCAACTGAAAAGTTGTGGGCGCAATAGTGAGTCGCTGCCTGCAAAGACACAACT [GCGCA] | 0.289 ± 0.025
GAGACCGCAACTGAAAAGTTGTGGGCGATATAGTGAGTCGCTGCCTGCAAAGACACAACT [GCGAT] | 21.9 ± 4.1
GAGACCGCAACTGAAAAGTTGTGGGCGAGATAGTGAGTCGCTGCCTGCAAAGACACAACT [GCGAG] | 1.37 ± 0.06
GAGACCGCAACTGAAAAGTTGTGGGCGAAATAGTGAGTCGCTGCCTGCAAAGACACAACT [GCGAA] | 1.35 ± 0.24
GAGACCGCAACTGAAAAGTTGTGGGCGACATAGTGAGTCGCTGCCTGCAAAGACACAACT [GCGAC] | 1.92 ± 0.12
GAGACCGCAACTGAAAAGTTGTGGTCGGTATAGTGAGTCGCTGCCTGCAAAGACACAACT [TCGGT] | 0.115 ± 0.0078
GAGACCGCAACTGAAAAGTTGTGGTCGGAATAGTGAGTCGCTGCCTGCAAAGACACAACT [TCGGA] | 0.233 ± 0.022
GAGACCGCAACTGAAAAGTTGTGGTCGGGATAGTGAGTCGCTGCCTGCAAAGACACAACT [TCGGG] | 0.41 ± 0.01
GAGACCGCAACTGAAAAGTTGTGGTCGGCATAGTGAGTCGCTGCCTGCAAAGACACAACT [TCGGC] | 0.232 ± 0.01
GAGACCGCAACTGAAAAGTTGTGGACGCCATAGTGAGTCGCTGCCTGCAAAGACACAACT [ACGCC] | 0.153 ± 0.035
GAGACCGCAACTGAAAAGTTGTGGACGCGATAGTGAGTCGCTGCCTGCAAAGACACAACT [ACGCG] | 0.622 ± 0.021
GAGACCGCAACTGAAAAGTTGTGGACGCTATAGTGAGTCGCTGCCTGCAAAGACACAACT [ACGCT] | 0.449 ± 0.15

Variant | ligation selection enrichment
GAGACCGCAACTGAAAAGTTGTGGACGCAATAGTGAGTCGCTGCCTGCAAAGACACAACT [ACGCA] | 0.248 ± 0.016
GAGACCGCAACTGAAAAGTTGTGGCCGCGATAGTGAGTCGCTGCCTGCAAAGACACAACT [CCGCG] | 0.499 ± 0.059
GAGACCGCAACTGAAAAGTTGTGGCCGCAATAGTGAGTCGCTGCCTGCAAAGACACAACT [CCGCA] | 0.206 ± 0.0029
GAGACCGCAACTGAAAAGTTGTGGCCGCTATAGTGAGTCGCTGCCTGCAAAGACACAACT [CCGCT] | 0.4 ± 0.15
GAGACCGCAACTGAAAAGTTGTGGCCGCCATAGTGAGTCGCTGCCTGCAAAGACACAACT [CCGCC] | 0.148 ± 0.0024
GAGACCGCAACTGAAAAGTTGTGGACCCTATAGTGAGTCGCTGCCTGCAAAGACACAACT [ACCCT] | 0.379 ± 0.15
GAGACCGCAACTGAAAAGTTGTGGACCGAATAGTGAGTCGCTGCCTGCAAAGACACAACT [ACCGA] | 0.379 ± 0.054
GAGACCGCAACTGAAAAGTTGTGGACCGCATAGTGAGTCGCTGCCTGCAAAGACACAACT [ACCGC] | 0.182 ± 0.016
GAGACCGCAACTGAAAAGTTGTGGACCGGATAGTGAGTCGCTGCCTGCAAAGACACAACT [ACCGG] | 0.409 ± 0.0084
GAGACCGCAACTGAAAAGTTGTGGACCGTATAGTGAGTCGCTGCCTGCAAAGACACAACT [ACCGT] | 0.232 ± 0.081
GAGACCGCAACTGAAAAGTTGTGGACGAGATAGTGAGTCGCTGCCTGCAAAGACACAACT [ACGAG] | 0.745 ± 0.13
GAGACCGCAACTGAAAAGTTGTGGACGACATAGTGAGTCGCTGCCTGCAAAGACACAACT [ACGAC] | 1.41 ± 0.032
GAGACCGCAACTGAAAAGTTGTGGACGAAATAGTGAGTCGCTGCCTGCAAAGACACAACT [ACGAA] | 0.734 ± 0.16
GAGACCGCAACTGAAAAGTTGTGGACGATATAGTGAGTCGCTGCCTGCAAAGACACAACT [ACGAT] | 16.5 ± 2.7
GAGACCGCAACTGAAAAGTTGTGGCCGATATAGTGAGTCGCTGCCTGCAAAGACACAACT [CCGAT] | 15.8 ± 4.6
GAGACCGCAACTGAAAAGTTGTGGCCGACATAGTGAGTCGCTGCCTGCAAAGACACAACT [CCGAC] | 1.37 ± 0.061
GAGACCGCAACTGAAAAGTTGTGGCCGAAATAGTGAGTCGCTGCCTGCAAAGACACAACT [CCGAA] | 0.831 ± 0.069
GAGACCGCAACTGAAAAGTTGTGGCCGAGATAGTGAGTCGCTGCCTGCAAAGACACAACT [CCGAG] | 0.853 ± 0.037
GAGACCGCAACTGAAAAGTTGTGGACCTGATAGTGAGTCGCTGCCTGCAAAGACACAACT [ACCTG] | 0.4917 ± 0.0012
GAGACCGCAACTGAAAAGTTGTGGACCTAATAGTGAGTCGCTGCCTGCAAAGACACAACT [ACCTA] | 0.18 ± 0.017
GAGACCGCAACTGAAAAGTTGTGGACCTCATAGTGAGTCGCTGCCTGCAAAGACACAACT [ACCTC] | 0.0933 ± 0.036
GAGACCGCAACTGAAAAGTTGTGGACCTTATAGTGAGTCGCTGCCTGCAAAGACACAACT [ACCTT] | 0.117 ± 0.004

Reference: the supplement of paper PMC10219994
